Assay results from patent US20220064329A1 (Novo Nordisk, published 2022).

Tests used:
Test in all cases: SPR, Biacore T200, 25 C; FVII(a) variant captured on anti-Gla Ab 4F6, mAb0842(OA) injected
[1] = target: T1, FVII(a) variant P251A (human, UniProt P08709 61-466)
T1 construct: hFVII alanine variant in cell culture supernatant
T1 sequence: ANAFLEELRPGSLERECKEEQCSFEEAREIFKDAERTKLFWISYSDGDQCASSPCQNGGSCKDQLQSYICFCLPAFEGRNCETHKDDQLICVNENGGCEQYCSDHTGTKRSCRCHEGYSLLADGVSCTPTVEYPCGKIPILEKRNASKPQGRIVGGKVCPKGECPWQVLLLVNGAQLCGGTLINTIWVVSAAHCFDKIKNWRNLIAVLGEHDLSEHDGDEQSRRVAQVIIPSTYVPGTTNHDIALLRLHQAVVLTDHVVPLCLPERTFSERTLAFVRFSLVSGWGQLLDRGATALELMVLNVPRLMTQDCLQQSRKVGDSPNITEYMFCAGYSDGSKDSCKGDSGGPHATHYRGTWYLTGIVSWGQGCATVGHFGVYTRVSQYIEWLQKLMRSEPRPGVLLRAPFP
Description: (§1) The running buffer was prepared by diluting 10-fold the 10×HBS-P buffer (supplied by GE Healthcare) and supplemented with 1 mg/ml BSA and 5 mM CaCl2 to give 10 mM HEPES, 150 mM NaCl, 0.05% v/v Polysorbate 20, pH 7.4, 5 mM CaCl2, 1 mg/ml bovine serum albumin (BSA). […] Regeneration of the chip was achieved using 10 mM HEPES, 150 mM NaCl, 20 mM EDTA, 0.05 v/v Polysorbate 20, pH 7.4. Binding data were analysed according to a 1:1 Kinetic model and steady state analysis using BiaEvaluation 4.1 supplied by the manufacturer (Biacore AB, Uppsala, Sweden). Wherever possible, ka, kd and KD values from 1:1 kinetic fitting model are reported. […] An amino acid residue is considered a hot-spot residue if substitution of that amino acid residue with alanine results in an affinity reduction of ten (10) fold or more relative to the wild type.

[2] = target: T2, FVII(a) variant M391A (human, UniProt P08709 61-466)
T2 construct: hFVII alanine variant in cell culture supernatant
T2 sequence: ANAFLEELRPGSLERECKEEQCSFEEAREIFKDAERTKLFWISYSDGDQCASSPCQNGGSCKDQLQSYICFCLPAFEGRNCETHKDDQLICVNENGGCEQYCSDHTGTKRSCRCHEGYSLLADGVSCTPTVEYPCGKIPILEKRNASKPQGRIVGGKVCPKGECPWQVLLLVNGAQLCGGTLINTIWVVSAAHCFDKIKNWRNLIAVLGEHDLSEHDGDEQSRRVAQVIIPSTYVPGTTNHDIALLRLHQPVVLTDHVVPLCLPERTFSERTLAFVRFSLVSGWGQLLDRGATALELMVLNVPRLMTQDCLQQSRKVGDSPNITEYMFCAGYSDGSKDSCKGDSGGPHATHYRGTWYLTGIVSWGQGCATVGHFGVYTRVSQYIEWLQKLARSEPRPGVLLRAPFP
Description: as §1

[3] = target: T3, FVII(a) variant R113A (human, UniProt P08709 61-466)
T3 construct: hFVII alanine variant in cell culture supernatant
T3 sequence: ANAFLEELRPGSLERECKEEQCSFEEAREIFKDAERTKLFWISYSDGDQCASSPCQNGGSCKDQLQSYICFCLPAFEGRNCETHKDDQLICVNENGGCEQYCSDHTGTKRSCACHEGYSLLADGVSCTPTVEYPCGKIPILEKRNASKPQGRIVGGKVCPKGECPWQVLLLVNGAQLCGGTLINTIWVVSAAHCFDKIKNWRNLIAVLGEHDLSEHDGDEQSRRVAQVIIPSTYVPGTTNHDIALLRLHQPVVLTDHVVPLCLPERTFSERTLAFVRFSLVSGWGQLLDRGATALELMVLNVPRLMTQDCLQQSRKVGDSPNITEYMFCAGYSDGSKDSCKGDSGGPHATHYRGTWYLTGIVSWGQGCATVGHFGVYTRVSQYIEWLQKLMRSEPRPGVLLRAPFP
Description: as §1

[4] = target: T4, FVII(a) variant G117A (human, UniProt P08709 61-466)
T4 construct: hFVII alanine variant in cell culture supernatant
T4 sequence: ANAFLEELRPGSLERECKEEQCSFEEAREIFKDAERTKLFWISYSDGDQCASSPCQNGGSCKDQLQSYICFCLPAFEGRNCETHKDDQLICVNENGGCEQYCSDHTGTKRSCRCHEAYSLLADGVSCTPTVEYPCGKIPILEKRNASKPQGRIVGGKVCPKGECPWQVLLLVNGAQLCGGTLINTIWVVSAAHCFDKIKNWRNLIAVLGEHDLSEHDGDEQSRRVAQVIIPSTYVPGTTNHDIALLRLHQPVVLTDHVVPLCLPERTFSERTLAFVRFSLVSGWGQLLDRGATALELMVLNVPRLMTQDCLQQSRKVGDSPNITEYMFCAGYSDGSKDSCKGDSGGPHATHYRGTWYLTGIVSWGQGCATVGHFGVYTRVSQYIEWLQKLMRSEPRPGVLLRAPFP
Description: as §1

[5] = target: T5, FVII(a) variant L120A (human, UniProt P08709 61-466)
T5 construct: hFVII alanine variant in cell culture supernatant
T5 sequence: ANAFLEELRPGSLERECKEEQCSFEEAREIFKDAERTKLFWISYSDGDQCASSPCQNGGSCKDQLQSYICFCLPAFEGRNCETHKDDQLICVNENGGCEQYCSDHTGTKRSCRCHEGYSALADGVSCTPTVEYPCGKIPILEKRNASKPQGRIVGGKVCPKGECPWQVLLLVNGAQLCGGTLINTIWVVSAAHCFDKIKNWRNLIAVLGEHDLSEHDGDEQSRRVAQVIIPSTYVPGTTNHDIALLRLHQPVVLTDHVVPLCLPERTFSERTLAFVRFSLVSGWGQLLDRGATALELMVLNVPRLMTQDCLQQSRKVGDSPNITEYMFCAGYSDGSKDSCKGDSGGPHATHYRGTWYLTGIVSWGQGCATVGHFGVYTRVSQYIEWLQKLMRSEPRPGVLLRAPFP
Description: as §1

B1: mAb0842(OA) (antibody, human IgG4 S228P, kappa)
heavy: QVQLQESGPGLVKPSQTLSLTCTVSGYSISSDSAWSWIRQPPGKGLEWIGYIQYSGSTNYNPSLKSRVTISRDTSKNQFSLKLSSVTAADTAVYYCARSVNYYGNSFAVGYWGQGTLVTVSSASTKGPSVFPLAPCSRSTSESTAALGCLVKDYFPEPVTVSWNSGALTSGVHTFPAVLQSSGLYSLSSVVTVPSSSLGTKTYTCNVDHKPSNTKVDKRVESKYGPPCPPCPAPEFLGGPSVFLFPPKPKDTLMISRTPEVTCVVVDVSQEDPEVQFNWYVDGVEVHNAKTKPREEQFNSTYRVVSVLTVLHQDWLNGKEYKCKVSNKGLPSSIEKTISKAKGQPREPQVYTLPPSQEEMTKNQVSLSCAVKGFYPSDIAVEWESNGQPENNYKTTPPVLDSDGSFFLVSRLTVDKSRWQEGNVFSCSVMHEALHNHYTQKSLSLSLGK
light: EIVLTQSPATLSLSPGERATLSCRASQGISDYLHWYQQKPGEAPRLLIKYTSQPATGIPARFSGSGSGTDFTLTISSLEPEDFAVYYCQNGHSFPLTFGQGTKLEIKRTVAAPSVFIFPPSDEQLKSGTASVVCLLNNFYPREAKVQWKVDNALQSGNSQESVTEQDSKDSTYSLSSTLTLSKADYEKHKVYACEVTHQGLSSPVTKSFNRGEC
chain: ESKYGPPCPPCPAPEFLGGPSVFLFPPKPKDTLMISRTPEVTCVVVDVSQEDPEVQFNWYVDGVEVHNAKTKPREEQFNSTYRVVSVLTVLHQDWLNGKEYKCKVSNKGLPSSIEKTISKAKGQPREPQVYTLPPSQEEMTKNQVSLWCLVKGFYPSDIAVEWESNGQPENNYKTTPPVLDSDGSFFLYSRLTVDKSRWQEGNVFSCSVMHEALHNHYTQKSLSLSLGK
notes: also called monovalent humanized 11F2 antibody; one-armed anti-FVII(a) antibody
Kd [1]: 0.85 nM | Kd [2]: 0.25 nM | Kd [3]: 0.29 nM | Kd [4]: 0.31 nM | Kd [5]: 0.6 nM
